These results are taken from article PMC6451099 (Nucleic Acids Research, 2019).

To fix the notation:
B1: FLAG-eEF1BδL (purified) (natural protein)
chain: MRSGKASCTLETVWEDKHKYEEAERRFYEHEATQAAASAQQLPAEGPAMNGPGQDDPEDADEAEAPDGGSRRDPRKSQDSRKPLQKKRKRSPKSGLGPADLALLGLSAERVWLDKSLFDQAESSYRQKLADVAAQAAWPPALAPWGLCTHGNQVACHHVTWGIWVNKSSFDQAERAFVEWSQALLLAPDGSRRQGTPNTGQQVAVPDLAHQPSPPVNGQPPLGSLQALVREVWLEKPRYDAAERGFYEALFDGHPPGKVRLQERAGLAEGARRGRRDRRGRNILGNKRAGLRRADGEAPSALPYCYFLQKDAEAPWLSKPAYDSAECRHHAAEALRVAWCLEAASLSHRPGPRSGLSVSSLRPNRKMATNFLAHEKIWFDKFKYDDAERRFYEQMNGPVAGASRQENGASVILRDIARARENIQKSLAGSSGPGASSGTSGDHGELVVRIASLEVENQSLRGVVQELQQAISKLEARLNVLEKSSPGHRATAPQTQHVSPMRQVEPPAKKPATPAEDDEDDDIDLFGSDNEEEDKEAAQLREERLRQYAEKKAKKPALVAKSSILLDVKPWDDETDMAQLEACVRSIQLDGLVWGASKLVPVGYGIRKLQIQCVVEDDKVGTDLLEEEITKFEEHVQSVDIAAFNKI
B2: His-HSF1 (purified) (natural protein, human, UniProt Q00613 1-529, looked up)
chain: MDLPVGPGAAGPSNVPAFLTKLWTLVSDPDTDALICWSPSGNSFHVFDQGQFAKEVLPKYFKHNNMASFVRQLNMYGFRKVVHIEQGGLVKPERDDTEFQHPCFLRGQEQLLENIKRKVTSVSTLKSEDIKIRQDSVTKLLTDVQLMKGKQECMDSKLLAMKHENEALWREVASLRQKHAQQQKVVNKLIQFLISLVQSNRILGVKRKIPLMLNDSGSAHSMPKYSRQFSLEHVHGSGPYSAPSPAYSSSSLYAPDAVASSGPIISDITELAPASPMASPGGSIDERPLSSSPLVRVKEEPPSPPQSPRVEEASPGRPSSVDTLLSPTALIDSILRESEPAPASVTALTDARGHTDTEGRPPSPPPTSTPEKCLSVACLDKNELSDHLDAMDSNLDNLQTMLSSHGFSVDTSALLDLFSPSVTVPDMSLPDLDSSLASIQELLSPQEPPRPPEAENSSPDSGKQLVHYTAQPLFLLDPGSVDTGSNDLPVLFELGEGSYFSEGDGFAEDPTISLLTGSEPPKAKDPTVS

Assay in all cases: pull-down
For one experiment, the target named is GST-RNF20/FLAG-RNF40 (human, UniProt Q5VTR2 1-975; O75150 1-1001).
Sequence of GST-RNF20/FLAG-RNF40 (Q5VTR2 whole entry, chain 1 of 2): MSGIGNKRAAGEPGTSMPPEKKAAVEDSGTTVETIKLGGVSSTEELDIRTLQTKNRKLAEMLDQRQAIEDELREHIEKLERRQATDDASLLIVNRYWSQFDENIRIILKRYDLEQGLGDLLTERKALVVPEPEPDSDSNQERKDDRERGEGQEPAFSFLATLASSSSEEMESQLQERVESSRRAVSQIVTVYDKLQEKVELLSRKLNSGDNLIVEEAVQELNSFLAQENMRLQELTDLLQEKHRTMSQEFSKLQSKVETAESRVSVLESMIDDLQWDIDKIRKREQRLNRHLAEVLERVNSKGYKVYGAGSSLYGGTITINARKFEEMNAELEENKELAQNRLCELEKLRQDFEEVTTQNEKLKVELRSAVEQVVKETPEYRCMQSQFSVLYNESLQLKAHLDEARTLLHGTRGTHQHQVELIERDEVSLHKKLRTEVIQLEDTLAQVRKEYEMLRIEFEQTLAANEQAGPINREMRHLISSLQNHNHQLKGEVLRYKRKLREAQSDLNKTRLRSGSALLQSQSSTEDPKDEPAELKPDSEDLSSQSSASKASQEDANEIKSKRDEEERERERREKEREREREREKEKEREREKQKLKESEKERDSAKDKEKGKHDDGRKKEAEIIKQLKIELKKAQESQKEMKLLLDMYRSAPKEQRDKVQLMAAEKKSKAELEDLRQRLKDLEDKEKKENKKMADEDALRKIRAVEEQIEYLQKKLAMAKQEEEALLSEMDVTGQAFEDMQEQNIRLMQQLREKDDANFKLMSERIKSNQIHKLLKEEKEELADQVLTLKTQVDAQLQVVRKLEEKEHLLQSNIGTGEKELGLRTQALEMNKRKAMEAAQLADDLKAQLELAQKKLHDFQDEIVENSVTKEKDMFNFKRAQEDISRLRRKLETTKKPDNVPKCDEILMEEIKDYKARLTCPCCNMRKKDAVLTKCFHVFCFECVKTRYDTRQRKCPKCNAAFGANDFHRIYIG
Sequence of GST-RNF20/FLAG-RNF40 (O75150 whole entry, chain 2 of 2): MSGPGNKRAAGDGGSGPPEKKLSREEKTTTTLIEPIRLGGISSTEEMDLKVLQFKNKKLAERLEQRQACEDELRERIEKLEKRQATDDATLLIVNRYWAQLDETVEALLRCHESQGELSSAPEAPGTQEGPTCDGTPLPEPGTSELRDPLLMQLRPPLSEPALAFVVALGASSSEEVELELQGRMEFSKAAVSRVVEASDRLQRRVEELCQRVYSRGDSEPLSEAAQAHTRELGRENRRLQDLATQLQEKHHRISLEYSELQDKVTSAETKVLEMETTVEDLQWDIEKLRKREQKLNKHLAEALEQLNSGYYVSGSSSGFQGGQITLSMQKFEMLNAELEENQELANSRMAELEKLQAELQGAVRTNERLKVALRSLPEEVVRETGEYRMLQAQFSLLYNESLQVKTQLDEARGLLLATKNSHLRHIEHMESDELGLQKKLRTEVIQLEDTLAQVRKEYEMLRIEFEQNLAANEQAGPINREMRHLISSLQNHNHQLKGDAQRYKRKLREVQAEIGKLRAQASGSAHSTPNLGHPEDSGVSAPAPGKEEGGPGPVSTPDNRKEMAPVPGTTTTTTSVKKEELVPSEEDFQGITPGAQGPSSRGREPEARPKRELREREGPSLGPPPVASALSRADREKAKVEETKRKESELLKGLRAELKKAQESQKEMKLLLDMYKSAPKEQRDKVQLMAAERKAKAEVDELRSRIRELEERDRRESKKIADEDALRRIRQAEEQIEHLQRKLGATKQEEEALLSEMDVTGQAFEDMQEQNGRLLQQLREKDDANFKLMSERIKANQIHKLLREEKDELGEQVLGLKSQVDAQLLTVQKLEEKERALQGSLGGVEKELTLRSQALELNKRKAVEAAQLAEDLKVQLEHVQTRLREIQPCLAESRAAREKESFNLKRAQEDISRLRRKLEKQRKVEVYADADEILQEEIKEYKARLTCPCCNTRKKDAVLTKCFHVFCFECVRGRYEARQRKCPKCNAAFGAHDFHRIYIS
The experiment “FLAG-eEF1BδL (purified)” concerns the target B1.
The target of the experiment “His-HSF1 (purified)” is B2.

In the case of B1, the binding result with GST-RNF20/FLAG-RNF40 was “binds”.

On to B2, for which the binding result in the experiment with FLAG-eEF1BδL (purified) is recorded as “binds”.

B3: GST-eEF1BδL fragment of residues 181–367 (domain or fragment, human, UniProt P29692-2 181-367, looked up)
chain: SQALLLAPDGSRRQGTPNTGQQVAVPDLAHQPSPPVNGQPPLGSLQALVREVWLEKPRYDAAERGFYEALFDGHPPGKVRLQERAGLAEGARRGRRDRRGRNILGNKRAGLRRADGEAPSALPYCYFLQKDAEAPWLSKPAYDSAECRHHAAEALRVAWCLEAASLSHRPGPRSGLSVSSLRPNRKM
B3: in the experiment with His-HSF1 (purified), the binding result is given as “binds”.
